PMC8341984

Target: CFP-cA1-cA1, two chicken ASIC1 subunits concatenated in a dimer with an N terminal CFP (chicken) (UniProt Q1XA76)
Assay: FRET or BRET; FLIM-FRET: lifetime of the CFP donor at the plasma membrane of single live HEK293T ASIC1 KO cells co-transfected at varying cDNA ratios; multi-photon excitation at 860 nm, single exponential fits

**Q.** Which FRET efficiency (1:15 ratio) does the source give for “C4 YFP, chicken ASIC1 with YFP at the C4 position of the C tail (from UniProt Q1XA76 1-527) (natural protein)” here?
**A.** The FRET efficiency (1:15 ratio) was 15%.
